According to publication PMC9817179:

Tests used:
[1] = molecular target: Halo-TAF15(IDR)-NLS (UniProt Q92804); test: live-cell single-particle tracking (SPT), residence time in puncta; living U2OS cells at 37°C, 5% CO2; HILO illumination; PA-JF646-labelled single molecules tracked (500 ms per frame, 2000 frames) within puncta of the same protein seen with JFX549; in-puncta trajectories; specific residence time of a two-component exponential fit, corrected for photobleaching with H2B-Halo
[2] = molecular target: NLS-TAF15(IDR)-Halo-FTH1 (UniProt Q92804); test: as above

Row | residence time (RT) at its puncta [1] [s] | residence time (RT) at its puncta [2] [s] | Substance
1 | 10.2 |  | Halo-TAF15(IDR)-NLS (from UniProt Q92804 2-205) (domain or fragment)
2 |  | 64.2 | NLS-TAF15(IDR)-Halo-FTH1 (from UniProt Q92804 2-205)
